# Data: US20250152746A1, “BASE EDITING OF ANGPTL3 AND METHODS OF USING SAME FOR TREATMENT OF DISEASE” (Verve Therapeutics, Inc., priority 2020, published 2025)
# In the oligonucleotide strings, read from the 5' end, every base follows the letter of its sugar. An asterisk marks phosphorothioate; unmarked linkages are phosphodiester. Other units and linkages are bracketed, terminal groups are in braces. A string of capitals states the bases alone. m = 2'-O-methyl; r = 2'-OH (RNA)
# B1: GA176: PCSK9 gRNA; protospacer AGCACCACCACGTAGGTGCC (SEQ ID NO: 170) (nucleic acid)
# guide: AGCACCACCACGUAGGUGCCGUUUUAGAGCUAGAAAUAGCAAGUUAAAAUAAGGCUAGUCCGUUAUCAACUUGAAAAAGUGGCACCGAGUCGGUGCUUUU
# modifications: sugars from the 5' end m3 r94 m3, linkages s3 o93 s3 (s phosphorothioate, o phosphodiester), T or U not given here
# B2: GA180: PCSK9 gRNA; protospacer GCGCACTGCCCGCCGCCTGC (SEQ ID NO: 174) (nucleic acid)
# guide: mG*mC*mG*rCrArCrUrGrCrCrCrGrCrCrGrCrCrUrGrCrGrUrUrUrUrArGrArGrCrUrArGrArArArUrArGrCrArArGrUrUrArArArArUrArArGrGrCrUrArGrUrCrCrGrUrUrArUrCrArArCrUrUrGrArArArArArGrUrGrGrCrArCrCrGrArGrUrCrGrGrUrGrCrU*mU*mU*mU
# B3: GA181: PCSK9 gRNA; protospacer GGCTTCCTGGTGAAGATGAG (SEQ ID NO: 175) (nucleic acid)
# guide: mG*mG*mC*rUrUrCrCrUrGrGrUrGrArArGrArUrGrArGrGrUrUrUrUrArGrArGrCrUrArGrArArArUrArGrCrArArGrUrUrArArArArUrArArGrGrCrUrArGrUrCrCrGrUrUrArUrCrArArCrUrUrGrArArArArArGrUrGrGrCrArCrCrGrArGrUrCrGrGrUrGrCrU*mU*mU*mU
# B4: GA178: PCSK9 gRNA; protospacer CTCCTTCAGCACCACCACGT (SEQ ID NO: 172) (nucleic acid)
# guide: mC*mU*mC*rCrUrUrCrArGrCrArCrCrArCrCrArCrGrUrGrUrUrUrUrArGrArGrCrUrArGrArArArUrArGrCrArArGrUrUrArArArArUrArArGrGrCrUrArGrUrCrCrGrUrUrArUrCrArArCrUrUrGrArArArArArGrUrGrGrCrArCrCrGrArGrUrCrGrGrUrGrCrU*mU*mU*mU
# B5: GA177: PCSK9 gRNA; protospacer GGTCGCCACTCATCTTCACC (SEQ ID NO: 171) (nucleic acid)
# guide: GGUCGCCACUCAUCUUCACCGUUUUAGAGCUAGAAAUAGCAAGUUAAAAUAAGGCUAGUCCGUUAUCAACUUGAAAAAGUGGCACCGAGUCGGUGCUUUU
# modifications: sugars from the 5' end m3 r94 m3, linkages s3 o93 s3 (s phosphorothioate, o phosphodiester), T or U not given here
# B6: GA179: PCSK9 gRNA; protospacer GAGTGGCGACCTGCTGGAGC (SEQ ID NO: 173) (nucleic acid)
# guide: mG*mA*mG*rUrGrGrCrGrArCrCrUrGrCrUrGrGrArGrCrGrUrUrUrUrArGrArGrCrUrArGrArArArUrArGrCrArArGrUrUrArArArArUrArArGrGrCrUrArGrUrCrCrGrUrUrArUrCrArArCrUrUrGrArArArArArGrUrGrGrCrArCrCrGrArGrUrCrGrGrUrGrCrU*mU*mU*mU
# System: PCSK9 gene
# Assay: PCSK9 gRNA/SpCas9 editing in primary cynomolgus hepatocytes (Tables 2, 22)
# Assay type: cell-based, cynomolgus monkey
# Settings: 100 ng/RNA/mL; SpCas9 mRNA MS002 1:1 by weight
row,Molecule,Cyno Primary Hepatocyte Editing % 100 [%]
1,B1,2.11
2,B2,0.91
3,B3,3.66
4,B4,2.21
5,B5,0.38
6,B6,1.06

# Same assay, conditions: 500 ng/RNA/mL; SpCas9 mRNA MS002 1:1 by weight
row,Molecule,Cyno Primary Hepatocyte Editing % 500 [%]
1,B1,8.11
2,B2,2.45
3,B3,15.43
4,B4,5.78
5,B5,4.68
6,B6,4.21

# Same assay, conditions: 2500 ng/RNA/mL; SpCas9 mRNA MS002 1:1 by weight
row,Molecule,Cyno Primary Hepatocyte Editing % 2500 [%]
1,B1,22.65
2,B2,14.12
3,B3,45.12
4,B4,25.22
5,B5,15.91
6,B6,12.94

# System: PCSK9 gene
# Assay: PCSK9 gRNA/SpCas9 editing in primary human hepatocytes (Tables 2, 4)
# Assay type: cell-based
# Settings: 100 ng/RNA/mL; SpCas9 mRNA MS002 1:1 by weight
# Outline: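 Primary human hepatocytes co-transfected with PCSK9 gRNA plus SpCas9 mRNA (1:1 by weight) at 2500, 500 or 100 ng RNA/mL, or 2500–250 ng/mL for tracr-modified guides. Editing at the target site read by amplicon next-generation sequencing of extracted genomic DNA.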
row,Molecule,Human Primary Hepatocyte Editing % 100 [%]
1,B1,0.36
2,B2,0.22
3,B3,28.87
4,B4,1.26
5,B5,0.65
6,B6,1.29

# Same assay, conditions: 500 ng/RNA/mL; SpCas9 mRNA MS002 1:1 by weight
row,Molecule,Human Primary Hepatocyte Editing % 500 [%]
1,B1,1.26
2,B2,2.22
3,B4,5.43
4,B5,2.67
5,B6,6

# Same assay, conditions: 2500 ng/RNA/mL; SpCas9 mRNA MS002 1:1 by weight
row,Molecule,Human Primary Hepatocyte Editing % 2500 [%]
1,B1,4.98
2,B2,17.16
3,B4,18.29
4,B5,12.57
5,B6,21.87
